From publication PMC5286830, “Prokaryotic ubiquitin-like protein remains intrinsically disordered when covalently attached to proteasomal target proteins” (BMC Structural Biology, 2017) come the findings set out here.

This assay has as its target T1, Pup ligase CgluPafA-His6 (proteasome accessory factor A from Corynebacterium glutamicum) (Corynebacterium glutamicum, UniProt Q8NQE1 1-482).
T1 construct: Pup ligase PafA, Corynebacterium glutamicum; The anisotropy methods call the titrated protein only 'CgluPafA'
T1 sequence (looked up): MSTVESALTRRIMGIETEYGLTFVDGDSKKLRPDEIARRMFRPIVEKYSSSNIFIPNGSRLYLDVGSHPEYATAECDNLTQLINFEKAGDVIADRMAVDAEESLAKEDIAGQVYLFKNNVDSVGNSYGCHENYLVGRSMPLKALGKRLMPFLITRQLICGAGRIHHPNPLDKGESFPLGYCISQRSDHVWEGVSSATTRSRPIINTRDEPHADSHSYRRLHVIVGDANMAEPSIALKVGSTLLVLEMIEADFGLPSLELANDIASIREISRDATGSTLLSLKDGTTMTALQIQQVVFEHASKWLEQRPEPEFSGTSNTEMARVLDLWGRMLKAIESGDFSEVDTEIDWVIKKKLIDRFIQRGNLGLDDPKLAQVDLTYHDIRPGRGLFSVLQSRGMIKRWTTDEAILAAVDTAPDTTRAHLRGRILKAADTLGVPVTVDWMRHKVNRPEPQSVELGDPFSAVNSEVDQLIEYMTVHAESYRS
Briefly: fluorescence polarisation; fluorescence anisotropy on a Synergy BioTek plate reader; 12.5 nM CgluPup-Q30C-Fluorescein labeled substrate or free CgluPup with 0 to 30 uM CgluPafA; 50 mM Tris pH 8.04 (RT), 150 mM NaCl, 0.5 mM EDTA, 0.001% Tween-20. The conditions noted are these: both partners purified.

B1: fluorescein-labeled CgluPup-Q30C variant (free) (natural protein, Corynebacterium glutamicum, UniProt Q8NQE0 1-64, looked up)
chain: MNAKQTQIMGGGGRDEDNAEDSAQASGQVC(fluorescein‑5‑maleimide)INTEGVDSLLDEIDGLLENNAEEFVRSYVQKGGE
notes: prokaryotic ubiquitin-like protein Pup, Corynebacterium glutamicum; also called CgluPup-Q30C-Fluorescein; free CgluPup-Q30C
In the case of B1, the Kd is 1.82 ± 0.18 µM.

For orientation: Kd means the equilibrium constant for the complex coming apart.
